Assay results taken from patent publication US20140294830A1 (SAMSUNG LIFE WELFARE FOUNDATION, published 2014).

Target: T1, human c-Met/Fc fusion protein (R&D Systems) (human, UniProt P08581 25-932)
T1 construct: Bought reagent; Coated on the ELISA plate at 2 ug/mL; also called human c-Met/Fc protein; not shown: Fc part of the bought fusion protein; not described
Experiment: ELISA, human c-Met/Fc coated at 2 ug/mL, hybridoma culture, anti-mouse IgG-HRP
Method: Human c-Met/Fc fusion protein was seeded in an amount of 50 μL (2 μg/mL)/well to microtiter plates and allowed to adhere to the surface of each well. The antibody that remained unbound was removed by washing.
The hybridoma cell culture obtained in Reference Example 1.1.2 was added in an amount of 50 μL to each well of the plates and incubated for 1 hour. The cells remaining unreacted were washed out with a sufficient amount of Tris-buffered saline and Tween 20 (TBST). Goat anti-mouse IgG-horseradish peroxidase (HRP) was added to the plates and incubated for 1 hour at room temperature. The plates were washed with a sufficient amount of TBST, followed by reacting the peroxidase with a substrate (OPD). Absorbance at 450 nm was measured on an ELISA reader.

T1 sequence (P08581 25-932 limits assumed): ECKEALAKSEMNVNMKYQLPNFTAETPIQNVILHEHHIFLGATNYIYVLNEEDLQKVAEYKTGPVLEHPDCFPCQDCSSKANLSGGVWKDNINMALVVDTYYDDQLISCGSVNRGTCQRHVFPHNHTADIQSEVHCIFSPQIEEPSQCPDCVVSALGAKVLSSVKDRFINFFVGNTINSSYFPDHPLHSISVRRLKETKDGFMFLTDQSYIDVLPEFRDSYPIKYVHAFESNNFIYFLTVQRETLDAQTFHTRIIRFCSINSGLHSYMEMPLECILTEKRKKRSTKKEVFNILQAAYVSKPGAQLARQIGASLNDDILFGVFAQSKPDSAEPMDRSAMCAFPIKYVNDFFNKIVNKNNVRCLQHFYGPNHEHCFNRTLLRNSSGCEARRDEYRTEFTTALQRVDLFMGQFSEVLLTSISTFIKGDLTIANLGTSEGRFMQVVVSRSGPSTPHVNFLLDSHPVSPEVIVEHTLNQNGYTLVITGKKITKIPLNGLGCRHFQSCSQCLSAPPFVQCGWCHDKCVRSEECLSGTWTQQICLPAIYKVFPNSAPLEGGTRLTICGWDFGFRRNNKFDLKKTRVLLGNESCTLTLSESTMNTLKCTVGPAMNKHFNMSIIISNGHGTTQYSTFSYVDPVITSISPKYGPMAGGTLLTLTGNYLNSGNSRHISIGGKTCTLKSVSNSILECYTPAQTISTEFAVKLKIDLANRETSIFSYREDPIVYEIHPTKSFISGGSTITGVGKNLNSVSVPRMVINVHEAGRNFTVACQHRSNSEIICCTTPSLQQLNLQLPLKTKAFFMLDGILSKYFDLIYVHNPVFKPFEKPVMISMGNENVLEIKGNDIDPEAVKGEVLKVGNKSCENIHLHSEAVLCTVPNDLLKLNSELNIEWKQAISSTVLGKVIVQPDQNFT

binding result: binds
B1: AbF46, mouse monoclonal antibody to c-Met (antibody, V domains shown)
VH: EVKLVESGGGLVQPGGSLRLSCATSGFTFTDYYMSWVRQPPGKALEWLGFIRNKANGYTTEYSASVKGRFTISRDNSQSILYLQMDTLRAEDSATYYCARDNWFAYWGQGTLVTVSA
VL: DILMTQSPSSLTVSAGEKVTMSCKSSQSLLASGNQNNYLAWHQQKPGRSPKMLIIWASTRVSGVPDRFIGSGSGTDFTLTINSVQAEDLAVYYCQQSYSAPLTFGAGTKLELK
notes: Tested as hybridoma culture supernatant in the selection ELISA; also called monoclonal antibody produced by hybridoma KCLRF-BP-00220
